PMC9481464

Target: GTP
Assay: GTP pull-down, quantified blot
Details: + Mg2+; co-expressed with HA-RagC S75N; read off a plot

Substance | response (relative to RagBlong Q127L (set to 1))
RagB^long (from UniProt Q5VZM2) Q127L | 1
RagB^long (from UniProt Q5VZM2) Q127L; D96A | 0.9
RagB^long (from UniProt Q5VZM2) Q127L; L94A | 1.8
